A word on the Tm: it is the temperature at the midpoint of the melting transition.

The conditions of this series: pH 5.5, CD, NaOAc 20 mM, KCl 50 mM, reversible: yes, whole UniProt chain shown; for denaturant m value / unfolding free energy: 25 °C; for Tm / heat capacity change of unfolding: Thermal.
Setting [1] is: Escherichia coli (strain K12), GdnHCl.
Setting [2] is: Escherichia coli (strain K12), Urea.
Where [3] appears, read: Thermus thermophilus (strain ATCC 27634 / DSM 579 / HB8), GdnHCl.
Setting [4] is: Thermus thermophilus (strain ATCC 27634 / DSM 579 / HB8).

B1: Ribonuclease HI wild type, P0A7Y4 (protein)
chain: MLKQVEIFTDGSCLGNPGPGGYGAILRYRGREKTFSAGYTRTTNNRMELMAAIVALEALKEHCEVILSTDSQYVRQGITQWIHNWKKRGWKTADKKPVKNVDLWQRLDAALGQHQIKWEWVKGHAGHPENERCDELARAAAMNPTLEDTGYQVEV
B1: under setting [1], the denaturant m value amounted to 4.9 kcal/mol/M and the unfolding free energy worked out at 7.6 kcal/mol. Besides, under setting [2], the denaturant m value is 2.1 kcal/mol/M and the unfolding free energy came out at 9.7 kcal/mol. For the setting “Escherichia coli (strain K12)”, the melting temperature (Tm) was found to be 66 °C and the “heat capacity change of unfolding” value was found to be 2.7 kcal/mol/K.

B2: Ribonuclease H wild type, P29253 (protein)
chain: MNPSPRKRVALFTDGACLGNPGPGGWAALLRFHAHEKLLSGGEACTTNNRMELKAAIEGLKALKEPCEVDLYTDSHYLKKAFTEGWLEGWRKRGWRTAEGKPVKNRDLWEALLLAMAPHRVRFHFVKGHTGHPENERVDREARRQAQSQAKTPCPPRAPTLFHEEA
For the protein B2, under setting [3], the denaturant m value was 4.4 kcal/mol/M and the unfolding free energy stood at 12.2 kcal/mol. Under setting [4], the Tm stood at 86 °C and the “heat capacity change of unfolding” value was found to be 1.8 kcal/mol/K.

(Values after FireProtDB (doi:10.1110/ps.38602).)
